Laboratory results as given in patent publication US20260000597A1 (priority 2018, published 2026).

Target: AchR (Homo sapiens, UniProt P02708)
Assay: ELISA of screened peptide phages on AchR versus streptavidin (OD450)
Assay type: binding
Conditions: ELISA of selected 14-mer (L3) peptide phages on AchR, absorbance at 450 nm; Spep-2 positive control
Summary of the method: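 Reported as the ratio of AchR to streptavidin OD450, with TMB read-out after HRP anti-M13 detection. Wells coated with 5 μg/ml target overnight at 4 °C and BSA-blocked, then incubated 1 h at 30 °C with helper-rescued phage from individual plaques.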

Chain of AchR (P02708 21-457): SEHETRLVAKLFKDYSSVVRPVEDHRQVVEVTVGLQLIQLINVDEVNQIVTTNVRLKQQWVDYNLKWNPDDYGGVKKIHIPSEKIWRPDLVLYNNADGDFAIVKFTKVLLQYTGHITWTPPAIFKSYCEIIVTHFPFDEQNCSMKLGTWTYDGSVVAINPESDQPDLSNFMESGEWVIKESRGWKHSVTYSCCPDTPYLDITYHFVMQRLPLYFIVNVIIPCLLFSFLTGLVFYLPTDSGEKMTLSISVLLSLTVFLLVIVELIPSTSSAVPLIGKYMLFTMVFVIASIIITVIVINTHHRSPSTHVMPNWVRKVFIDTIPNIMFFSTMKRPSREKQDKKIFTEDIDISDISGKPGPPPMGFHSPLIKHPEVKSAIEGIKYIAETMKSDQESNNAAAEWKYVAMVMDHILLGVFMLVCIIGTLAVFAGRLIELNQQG

Row | Substance | OD
1 | L3-57 (EEIKQKKLHLRVWF; AchR binding peptide) [Peptide L3-57] | 0.674
2 | L3-58 (SLPKWRKGGDRVFT; AchR binding peptide) [Peptide L3-58] | 0.664
3 | L3-59 (HVYKNRRVWGKGWP; AchR binding peptide) [Peptide L3-59] | 0.659
4 | L3-60 (EDLRCKKLELRSVI; AchR binding peptide) [Peptide L3-60] | 0.574
5 | L3-61 (THDKCKKHNDKQAH; AchR binding peptide) [Peptide L3-61] | 0.768
6 | L3-62 (YPERPRKLQDKSYS; AchR binding peptide) [Peptide L3-62] | 0.766
7 | L3-63 (CPWRNRKAMIKGII; AchR binding peptide) [Peptide L3-63] | 0.794
8 | L3-64 (HEIKQKKYFHRGHD; AchR binding peptide) [Peptide L3-64] | 0.799
9 | L3-65 (CLEKLRKAVHRQRR; AchR binding peptide) [Peptide L3-65] | 0.731
10 | L3-66 (YISKSKKTAGRWFW; AchR binding peptide) [Peptide L3-66] | 0.738
11 | L3-67 (VTWKFRKAEKRWGY; AchR binding peptide) [Peptide L3-67] | 0.786
12 | L3-68 (YSSKSRKLSPRTPR; AchR binding peptide) [Peptide L3-68] | 0.792
13 | L3-69 (CVNRVKKSDSKGTW; AchR binding peptide) [Peptide L3-69] | 0.733
14 | L3-70 (DHERERRLWSRFPF; AchR binding peptide) [Peptide L3-70] | 0.781
15 | L3-71 (PLIKVKRGVGKLWN; AchR binding peptide) [Peptide L3-71] | 0.78
16 | L3-72 (TGCRCKRSMYKNLH; AchR binding peptide) [Peptide L3-72] | 0.746
17 | L3-73 (WTCRMRKYQLRTSE; AchR binding peptide) [Peptide L3-73] | 0.771
18 | L3-74 (IAIRPRKMTLKIHP; AchR binding peptide) [Peptide L3-74] | 0.726
19 | L3-75 (QIPKQKKQEQRAIS; AchR binding peptide) [Peptide L3-75] | 0.72
20 | L3-76 (QMGKFKKISLKNTF; AchR binding peptide) [Peptide L3-76] | 0.701
21 | L3-77 (VLIKQRKWQDRSCS; AchR binding peptide) [Peptide L3-77] | 0.688

Row | Substance | OD
22 | L3-78 (FITKSRRQQFRNQG; AchR binding peptide) [Peptide L3-78] | 0.712
23 | L3-79 (QQFKYRRECVKYGS; AchR binding peptide) [Peptide L3-79] | 0.701
24 | L3-80 (MEGREKKSYNKGEN; AchR binding peptide) [Peptide L3-80] | 0.589
25 | L3-81 (PTWRHRRYCAKDIG; AchR binding peptide) [Peptide L3-81] | 0.775
26 | L3-82 (HMCRSKRVAWKNLI; AchR binding peptide) [Peptide L3-82] | 0.783
27 | L3-83 (SYLKCKRSDYKEVP; AchR binding peptide) [Peptide L3-83] | 0.768
28 | L3-84 (HTFKLRKLCQKLFE; AchR binding peptide) [Peptide L3-84] | 0.739
29 | L3-85 (QLVKLRKLARRVSY; AchR binding peptide) [Peptide L3-85] | 0.735
30 | L3-86 (SEVRPKKDHSRLFI; AchR binding peptide) [Peptide L3-86] | 0.755
31 | L3-87 (FLEKCRKFIIRVST; AchR binding peptide) [Peptide L3-87] | 0.743
32 | L3-88 (PETRHRKMFIRDFW; AchR binding peptide) [Peptide L3-88] | 0.7
33 | L3-89 (EWCKNKRWHSREYP; AchR binding peptide) [Peptide L3-89] | 0.624
34 | L3-90 (LWNRYKKLLMRIFW; AchR binding peptide) [Peptide L3-90] | 0.818
35 | L3-91 (CWCRQRKCFHKPWI; AchR binding peptide) [Peptide L3-91] | 0.749
36 | L3-92 (NLERTKKHGLKGYM; AchR binding peptide) [Peptide L3-92] | 0.657
37 | L3-93 (EGGRIKRPNYRGDG; AchR binding peptide) [Peptide L3-93] | 0.7
38 | L3-94 (PVLKLRKGRVRAQP; AchR binding peptide) [Peptide L3-94] | 0.61
39 | L3-95 (SISRLRKAHQKFIP; AchR binding peptide) [Peptide L3-95] | 0.657
40 | L3-96 (EWHKHRREMVRWGP; AchR binding peptide) [Peptide L3-96] | 0.567
41 | L3-97 (WSAKGRRMGCKSTM; AchR binding peptide) [Peptide L3-97] | 0.684
42 | L3-98 (PNGKVRKRIRRRYF; AchR binding peptide) [Peptide L3-98] | 0.685

Row | Substance | OD
43 | L3-99 (PCWKFRRAQMKWGI; AchR binding peptide) [Peptide L3-99] | 0.692
44 | L3-100 (LEERPKKHCAKNHC; AchR binding peptide) [Peptide L3-100] | 0.572
45 | L3-101 (QPWRQKKFWCRCWG; AchR binding peptide) [Peptide L3-101] | 0.758
46 | L3-102 (IMVKIRRCPARPLC; AchR binding peptide) [Peptide L3-102] | 0.581
47 | L3-103 (NDWKLRKDFWRNHF; AchR binding peptide) [Peptide L3-103] | 0.676
48 | L3-104 (ASVRDRKMGYKSDG; AchR binding peptide) [Peptide L3-104] | 0.57
49 | L3-105 (YYEKIRRGEIKIAE; AchR binding peptide) [Peptide L3-105] | 0.601
50 | L3-106 (DLVRKRKTMLRQLV; AchR binding peptide) [Peptide L3-106] | 0.642
51 | L3-107 (DLSKVRRGHGKNDI; AchR binding peptide) [Peptide L3-107] | 0.658
52 | L3-108 (ESYRLRRGTDKEQW; AchR binding peptide) [Peptide L3-108] | 0.621
53 | L3-109 (YITKFRKFLMKDQF; AchR binding peptide) [Peptide L3-109] | 0.613
54 | L3-110 (AWAKYKKVQPKHHT; AchR binding peptide) [Peptide L3-110] | 0.538
55 | L3-111 (TWLRGRRWPDKQPQ; AchR binding peptide) [Peptide L3-111] | 0.976
56 | L3-112 (ALPRVRKDSHREEI; AchR binding peptide) [Peptide L3-112] | 0.731
57 | L3-113 (CLFKYRKSCVRLCG; AchR binding peptide) [Peptide L3-113] | 0.766
58 | L3-114 (LQNRMRKIYWKTFD; AchR binding peptide) [Peptide L3-114] | 0.646
59 | L3-115 (NDPRLRKHNHRCCT; AchR binding peptide) [Peptide L3-115] | 0.685
60 | L3-116 (YGSKQRRFEEKICG; AchR binding peptide) [Peptide L3-116] | 0.644
61 | L3-117 (CGHKNKKWHNRMDP; AchR binding peptide) [Peptide L3-117] | 0.696
62 | L3-118 (YGIRDRRPMTKHTQ; AchR binding peptide) [Peptide L3-118] | 0.69
